The values below are quoted from earlier work in paper PMC9607845.

Usually Kd stands for the concentration at which binding is half-saturated.

Series [1] addresses BCOR BCOR peptide (Homo sapiens) (UniProt Q6W2J9).
Series [2] deals with SMRT SMRT peptide (Homo sapiens) (UniProt Q9Y618).
For series [3], the target named is SMRT peptide (Homo sapiens) (UniProt Q9Y618).
For series [4], the target named is BCOR peptide (Homo sapiens) (UniProt Q6W2J9).
Series [5] deals with Mig6 segment 1 peptide segment 1 (Homo sapiens) (UniProt Q9UJM3).
Sequence of Mig6 segment 1 peptide segment 1 (Homo sapiens) (Q9UJM3 334-363): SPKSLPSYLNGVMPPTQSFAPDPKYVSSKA
Series [6] addresses Mig6 segment 1 peptide (Homo sapiens) (UniProt Q9UJM3).
The target of series [7] is p63 peptide (Homo sapiens) (UniProt Q9H3D4).
The target of series [8] is p73 peptide (Homo sapiens) (UniProt O15350).
Sequence of p73 peptide (Homo sapiens) (O15350 whole entry): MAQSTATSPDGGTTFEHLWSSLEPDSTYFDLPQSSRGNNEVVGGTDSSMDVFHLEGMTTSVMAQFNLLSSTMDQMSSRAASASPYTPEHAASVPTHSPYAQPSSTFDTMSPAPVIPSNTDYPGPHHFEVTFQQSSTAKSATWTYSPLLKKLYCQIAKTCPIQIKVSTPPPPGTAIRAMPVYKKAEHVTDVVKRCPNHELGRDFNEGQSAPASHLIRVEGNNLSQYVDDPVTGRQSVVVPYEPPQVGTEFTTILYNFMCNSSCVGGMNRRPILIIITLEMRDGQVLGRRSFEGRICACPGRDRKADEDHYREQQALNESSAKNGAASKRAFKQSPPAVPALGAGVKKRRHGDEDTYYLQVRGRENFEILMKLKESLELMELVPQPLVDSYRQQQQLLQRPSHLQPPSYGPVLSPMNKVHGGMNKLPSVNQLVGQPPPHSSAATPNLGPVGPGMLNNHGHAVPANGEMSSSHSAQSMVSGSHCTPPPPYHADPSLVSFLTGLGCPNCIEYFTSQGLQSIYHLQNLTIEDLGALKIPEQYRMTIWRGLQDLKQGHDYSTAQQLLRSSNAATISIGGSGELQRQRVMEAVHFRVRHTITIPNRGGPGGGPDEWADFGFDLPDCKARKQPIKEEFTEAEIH
Series [9] shares this target. This is another data set of the same source.
Series [10] concerns the target p63 peptide (Homo sapiens) (UniProt Q9H3D4). The source holds these as a separate data set.

Where two headings read alike, the source gives them in different places.

Sequence of MDM2 MDM2N (Q00987 17-125): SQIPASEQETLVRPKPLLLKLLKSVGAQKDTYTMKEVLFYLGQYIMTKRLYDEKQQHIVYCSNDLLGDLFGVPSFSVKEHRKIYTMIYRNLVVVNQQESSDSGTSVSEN
Sequence of SMRT peptide (Homo sapiens) (Q9Y618 whole entry): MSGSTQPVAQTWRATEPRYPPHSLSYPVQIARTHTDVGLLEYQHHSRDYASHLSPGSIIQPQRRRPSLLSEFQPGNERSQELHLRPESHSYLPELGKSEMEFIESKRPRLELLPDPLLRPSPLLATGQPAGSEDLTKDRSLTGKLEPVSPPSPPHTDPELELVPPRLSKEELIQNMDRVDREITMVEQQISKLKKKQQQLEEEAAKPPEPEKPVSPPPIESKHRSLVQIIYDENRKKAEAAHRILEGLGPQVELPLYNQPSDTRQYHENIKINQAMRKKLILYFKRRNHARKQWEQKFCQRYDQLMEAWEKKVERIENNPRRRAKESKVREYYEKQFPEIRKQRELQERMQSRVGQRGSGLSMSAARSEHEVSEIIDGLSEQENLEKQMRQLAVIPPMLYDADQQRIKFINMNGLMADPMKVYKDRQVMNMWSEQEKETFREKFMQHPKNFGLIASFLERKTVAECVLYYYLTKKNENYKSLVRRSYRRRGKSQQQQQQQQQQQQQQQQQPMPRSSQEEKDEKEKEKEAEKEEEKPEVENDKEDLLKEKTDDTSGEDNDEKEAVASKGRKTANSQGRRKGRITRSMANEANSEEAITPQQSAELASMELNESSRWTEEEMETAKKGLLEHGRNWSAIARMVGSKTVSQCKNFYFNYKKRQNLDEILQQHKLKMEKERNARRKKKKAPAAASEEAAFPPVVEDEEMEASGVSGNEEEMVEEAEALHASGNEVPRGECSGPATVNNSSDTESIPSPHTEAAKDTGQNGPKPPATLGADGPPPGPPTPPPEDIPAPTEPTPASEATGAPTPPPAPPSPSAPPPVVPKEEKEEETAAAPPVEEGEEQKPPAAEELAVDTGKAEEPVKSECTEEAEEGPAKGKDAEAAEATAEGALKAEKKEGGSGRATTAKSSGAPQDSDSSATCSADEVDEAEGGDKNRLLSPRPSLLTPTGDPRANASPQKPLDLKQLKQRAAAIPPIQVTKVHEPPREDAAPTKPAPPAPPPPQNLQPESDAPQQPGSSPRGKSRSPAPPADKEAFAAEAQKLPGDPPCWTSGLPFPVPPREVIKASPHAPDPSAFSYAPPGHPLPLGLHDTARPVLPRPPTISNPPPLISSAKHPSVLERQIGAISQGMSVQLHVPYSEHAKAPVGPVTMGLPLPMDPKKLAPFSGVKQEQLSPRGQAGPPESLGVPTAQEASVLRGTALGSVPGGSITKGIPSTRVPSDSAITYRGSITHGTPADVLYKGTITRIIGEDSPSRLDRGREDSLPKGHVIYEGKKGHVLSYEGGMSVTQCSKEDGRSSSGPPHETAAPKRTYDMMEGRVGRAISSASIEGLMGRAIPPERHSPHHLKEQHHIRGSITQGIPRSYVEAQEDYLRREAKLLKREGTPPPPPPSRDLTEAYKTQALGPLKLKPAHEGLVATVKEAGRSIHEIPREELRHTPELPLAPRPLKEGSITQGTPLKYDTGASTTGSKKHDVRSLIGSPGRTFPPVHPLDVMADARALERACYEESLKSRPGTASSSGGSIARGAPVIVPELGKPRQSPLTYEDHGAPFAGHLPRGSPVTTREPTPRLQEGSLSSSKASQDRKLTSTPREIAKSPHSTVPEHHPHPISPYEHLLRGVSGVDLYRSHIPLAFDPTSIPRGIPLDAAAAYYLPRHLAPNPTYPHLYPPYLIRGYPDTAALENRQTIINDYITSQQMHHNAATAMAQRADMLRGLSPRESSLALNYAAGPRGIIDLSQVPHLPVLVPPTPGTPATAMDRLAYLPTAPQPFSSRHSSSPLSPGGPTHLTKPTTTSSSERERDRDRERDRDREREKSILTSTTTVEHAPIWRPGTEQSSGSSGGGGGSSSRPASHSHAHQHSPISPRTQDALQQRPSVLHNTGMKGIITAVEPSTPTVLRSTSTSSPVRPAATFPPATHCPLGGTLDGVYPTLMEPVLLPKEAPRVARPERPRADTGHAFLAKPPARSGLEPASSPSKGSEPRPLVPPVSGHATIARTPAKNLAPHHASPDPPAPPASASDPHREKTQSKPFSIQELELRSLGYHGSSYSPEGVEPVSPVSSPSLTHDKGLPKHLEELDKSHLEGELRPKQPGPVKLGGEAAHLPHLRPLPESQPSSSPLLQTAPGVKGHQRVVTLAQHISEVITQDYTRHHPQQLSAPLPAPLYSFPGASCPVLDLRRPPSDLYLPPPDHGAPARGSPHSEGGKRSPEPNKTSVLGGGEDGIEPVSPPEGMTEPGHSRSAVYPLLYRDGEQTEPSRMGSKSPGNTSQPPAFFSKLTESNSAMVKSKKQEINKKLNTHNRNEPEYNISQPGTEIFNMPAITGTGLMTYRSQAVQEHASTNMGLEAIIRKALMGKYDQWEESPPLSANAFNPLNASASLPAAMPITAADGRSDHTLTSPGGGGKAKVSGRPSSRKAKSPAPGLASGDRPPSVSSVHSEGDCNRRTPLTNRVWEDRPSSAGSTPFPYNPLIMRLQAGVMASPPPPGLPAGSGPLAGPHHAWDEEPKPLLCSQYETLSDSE
Sequence of BCOR peptide (Homo sapiens) (Q6W2J9 whole entry): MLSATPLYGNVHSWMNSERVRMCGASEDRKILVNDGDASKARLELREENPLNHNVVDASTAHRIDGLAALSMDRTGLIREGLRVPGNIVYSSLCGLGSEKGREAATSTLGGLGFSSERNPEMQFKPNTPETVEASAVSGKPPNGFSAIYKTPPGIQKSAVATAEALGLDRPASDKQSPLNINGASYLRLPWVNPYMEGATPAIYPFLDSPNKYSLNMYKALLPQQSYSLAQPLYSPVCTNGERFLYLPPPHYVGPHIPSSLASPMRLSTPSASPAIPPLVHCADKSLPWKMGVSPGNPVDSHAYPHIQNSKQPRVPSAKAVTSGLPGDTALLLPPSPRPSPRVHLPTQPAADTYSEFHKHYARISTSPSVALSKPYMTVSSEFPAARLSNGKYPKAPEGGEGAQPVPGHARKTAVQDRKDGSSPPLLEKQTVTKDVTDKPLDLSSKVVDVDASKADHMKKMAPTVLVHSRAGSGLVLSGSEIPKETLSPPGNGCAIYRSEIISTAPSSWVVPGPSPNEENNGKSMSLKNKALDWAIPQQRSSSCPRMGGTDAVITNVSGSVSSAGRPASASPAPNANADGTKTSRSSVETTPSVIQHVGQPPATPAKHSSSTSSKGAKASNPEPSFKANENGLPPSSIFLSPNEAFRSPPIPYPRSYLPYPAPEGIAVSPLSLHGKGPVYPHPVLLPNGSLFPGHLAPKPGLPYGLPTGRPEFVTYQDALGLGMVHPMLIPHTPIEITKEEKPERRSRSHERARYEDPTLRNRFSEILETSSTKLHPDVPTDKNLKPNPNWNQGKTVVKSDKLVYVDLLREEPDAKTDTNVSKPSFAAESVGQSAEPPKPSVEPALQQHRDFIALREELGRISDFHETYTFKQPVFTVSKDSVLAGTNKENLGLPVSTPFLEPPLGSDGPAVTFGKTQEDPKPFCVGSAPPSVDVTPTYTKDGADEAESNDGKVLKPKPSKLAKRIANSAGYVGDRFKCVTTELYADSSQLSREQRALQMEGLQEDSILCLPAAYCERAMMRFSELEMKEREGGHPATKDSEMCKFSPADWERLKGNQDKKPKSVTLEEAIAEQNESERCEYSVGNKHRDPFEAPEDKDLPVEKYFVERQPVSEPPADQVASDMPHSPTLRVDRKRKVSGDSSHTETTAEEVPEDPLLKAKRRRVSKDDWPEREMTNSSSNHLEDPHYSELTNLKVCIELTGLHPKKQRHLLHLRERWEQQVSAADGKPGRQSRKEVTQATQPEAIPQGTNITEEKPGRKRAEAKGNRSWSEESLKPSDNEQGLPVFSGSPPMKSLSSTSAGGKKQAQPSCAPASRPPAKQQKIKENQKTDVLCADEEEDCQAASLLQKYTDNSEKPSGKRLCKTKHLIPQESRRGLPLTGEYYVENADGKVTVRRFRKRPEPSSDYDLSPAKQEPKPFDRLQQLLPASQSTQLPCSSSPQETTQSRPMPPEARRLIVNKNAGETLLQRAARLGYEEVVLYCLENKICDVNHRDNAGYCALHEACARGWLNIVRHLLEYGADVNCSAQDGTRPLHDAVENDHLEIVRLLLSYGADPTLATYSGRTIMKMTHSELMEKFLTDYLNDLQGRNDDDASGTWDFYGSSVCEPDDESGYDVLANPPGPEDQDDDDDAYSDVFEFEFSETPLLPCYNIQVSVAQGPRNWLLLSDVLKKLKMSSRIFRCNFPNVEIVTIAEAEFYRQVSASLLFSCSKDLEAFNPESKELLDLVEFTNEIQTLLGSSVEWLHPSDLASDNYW
Sequence of Mig6 segment 1 peptide (Homo sapiens) (Q9UJM3 336-364): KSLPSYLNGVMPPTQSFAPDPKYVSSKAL

Take Bcl6 BTB (from UniProt P41182): the Kd in series [1] was 1.3 µM; in series [2] it was 11 µM; in [3] it was 11 µM; in series [4] it was 1.3 µM.
Turning to “EGFR kinase domain C-lobe (from UniProt P00533)”, the Kd in [5] and in series [6] was 13 µM in each case.
With MDM2 MDM2N (from UniProt Q00987), the Kd was 26 µM in [7] and 1.4 µM in series [8].
For the substance “MDM2 N-terminal domain (from UniProt Q00987)”, the Kd in [9] was 1.4 µM; in series [10], 26 µM.
